PMC11203719, “Mts1 (S100A4) and Its Peptide Demonstrate Cytotoxic Activity in Complex with Tag7 (PGLYRP1) Peptide” (International Journal of Molecular Sciences, 2024)

Molecular target: T1, Tag7 (PGLYRP1) protein, recombinant (UniProt O88593)
T1 sequence (O88593 1-182, species assumed, looked up): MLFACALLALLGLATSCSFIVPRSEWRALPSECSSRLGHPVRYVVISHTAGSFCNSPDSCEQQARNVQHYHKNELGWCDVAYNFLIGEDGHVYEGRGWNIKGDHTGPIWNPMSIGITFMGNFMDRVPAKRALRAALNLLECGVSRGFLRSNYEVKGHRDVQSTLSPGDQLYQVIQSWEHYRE
Assay: MST; Tag7 labelled with Alexa Fluor 488 (200 nM), preincubated 20 min in the dark at room temperature with 16 concentrations of M7; Monolith NT.115, 10% IR laser power

B1: M7 peptide of Mts1 (S100A4) (peptide)
peptide: ELPSFLGKRTDEAAFQK
B1 was tested, and the Kd was 2.96 nM.
